Here are results for five molecules from patent US20030068675, “Position dependent recognition of GNN nucleotide triplets by zinc fingers” (published 2003).

Common to all, as to experiment: EMSA
What all share (details): tags: MBP fusion

Series [1] concerns the target ZFP SBS#768 (synthetic). The procedure, abridged:
(§1)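 Purified ZFP was titrated against labeled double-stranded target (1 nM or lower, at least 10-fold below expected Kd) carrying the natural binding site with flanks. Binding buffer was 10 mM Tris pH 7.5, 100 mM KCl, 1 mM MgCl2, 0.1 mM ZnCl2, 5 mM DTT, 10% glycerol, 0.02% BSA, with equilibration for at least 45 min. Bound and free target were separated on a 10% polyacrylamide gel.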

Series [2] has as its target ZFP SBS#767 (synthetic, UniProt P08047). The procedure, abridged:
as §1

The target in series [3] is ZFP SBS#798 (synthetic, UniProt P08047). In short, it runs like this: as §1
Series [4] deals with ZFP SBS#799 (synthetic). The procedure, abridged:
as §1

Series [5] concerns the target T1, ZFP SBS#805 (synthetic).
T1 chain: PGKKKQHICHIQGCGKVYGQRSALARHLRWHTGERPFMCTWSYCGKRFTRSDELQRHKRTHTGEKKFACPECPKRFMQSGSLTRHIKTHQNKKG
In short, it runs like this: as §1

The target in series [6] is T2, ZFP SBS#774 (synthetic).
T2 chain: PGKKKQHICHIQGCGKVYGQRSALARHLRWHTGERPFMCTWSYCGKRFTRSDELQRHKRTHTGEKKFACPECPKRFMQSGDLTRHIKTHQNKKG
In short, it runs like this: as §1

The target in series [7] is ZFP SBS#773 (synthetic). In short, it runs like this: as §1
Series [8] deals with T3, ZFP SBS#775 (synthetic).
T3 chain: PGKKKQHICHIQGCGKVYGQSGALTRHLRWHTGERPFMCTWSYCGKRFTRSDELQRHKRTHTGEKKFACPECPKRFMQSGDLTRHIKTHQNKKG
In short, it runs like this: as §1

Series [9] has as its target T4, ZFP SBS#851 (synthetic).
T4 chain: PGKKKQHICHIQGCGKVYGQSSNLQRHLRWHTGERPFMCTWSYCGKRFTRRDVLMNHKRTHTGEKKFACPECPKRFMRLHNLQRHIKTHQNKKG
The procedure, abridged: as §1

Series [10] addresses ZFP SBS#845 (synthetic). The procedure, abridged:
as §1

Series [11] addresses T5, ZFP SBS#846 (synthetic).
T5 chain: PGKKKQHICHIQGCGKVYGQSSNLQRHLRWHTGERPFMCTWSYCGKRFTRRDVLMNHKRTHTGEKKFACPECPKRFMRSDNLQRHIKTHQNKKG
The procedure, abridged:
as §1

In series [12] the target is ZFP SBS#844 (synthetic). In short, it runs like this:
as §1

In series [13] the target is ZFP SBS#253 (synthetic). The procedure, abridged:
as §1

The target of series [14] is ZFP SBS#684 (synthetic). The procedure, abridged: as §1
The target of series [15] is ZFP SBS#681 (synthetic). The procedure, abridged: as §1
In series [16] the target is ZFP SBS#685 (synthetic). The procedure, abridged: as §1
Series [17] concerns the target ZFP SBS#682 (synthetic). In short, it runs like this: as §1
Series [18] concerns the target T6, ZFP SBS#683 (synthetic).
T6 chain: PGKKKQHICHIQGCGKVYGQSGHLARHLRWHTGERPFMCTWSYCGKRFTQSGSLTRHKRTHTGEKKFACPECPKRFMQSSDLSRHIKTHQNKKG
The procedure, abridged: as §1

Sequence of ZFP SBS#685 (synthetic) (chain, as listed by the source): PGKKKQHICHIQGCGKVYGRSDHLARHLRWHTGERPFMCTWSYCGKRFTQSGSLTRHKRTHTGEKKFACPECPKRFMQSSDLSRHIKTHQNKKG
Sequence of ZFP SBS#844 (synthetic) (chain, as listed by the source): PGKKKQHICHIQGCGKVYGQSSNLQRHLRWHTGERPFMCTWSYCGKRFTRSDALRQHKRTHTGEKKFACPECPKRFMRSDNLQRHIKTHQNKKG
Sequence of ZFP SBS#768 (synthetic) (chain, as listed by the source): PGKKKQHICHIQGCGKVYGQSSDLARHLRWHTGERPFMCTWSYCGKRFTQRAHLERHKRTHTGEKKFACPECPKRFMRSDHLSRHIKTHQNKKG
Sequence of ZFP SBS#798 (P08047 other isoform, or with tags, fused parts or gaps): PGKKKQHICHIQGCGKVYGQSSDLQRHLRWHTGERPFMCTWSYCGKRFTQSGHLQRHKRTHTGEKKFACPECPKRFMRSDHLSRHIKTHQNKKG
Sequence of ZFP SBS#799 (synthetic) (chain, as listed by the source): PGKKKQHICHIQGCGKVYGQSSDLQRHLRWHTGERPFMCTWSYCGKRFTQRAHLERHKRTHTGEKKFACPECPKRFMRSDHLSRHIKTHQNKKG
Sequence of ZFP SBS#767 (P08047 other isoform, or with tags, fused parts or gaps): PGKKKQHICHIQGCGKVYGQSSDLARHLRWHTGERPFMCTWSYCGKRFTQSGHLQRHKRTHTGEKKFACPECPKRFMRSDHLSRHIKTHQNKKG
Sequence of ZFP SBS#845 (synthetic) (chain, as listed by the source): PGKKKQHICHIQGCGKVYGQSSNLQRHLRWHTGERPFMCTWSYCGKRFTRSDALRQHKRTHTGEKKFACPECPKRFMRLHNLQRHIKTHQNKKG
Sequence of ZFP SBS#681 (synthetic) (chain, as listed by the source): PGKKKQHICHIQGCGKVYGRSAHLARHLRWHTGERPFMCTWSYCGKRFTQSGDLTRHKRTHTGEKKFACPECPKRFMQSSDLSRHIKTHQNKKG
Sequence of ZFP SBS#684 (synthetic) (chain, as listed by the source): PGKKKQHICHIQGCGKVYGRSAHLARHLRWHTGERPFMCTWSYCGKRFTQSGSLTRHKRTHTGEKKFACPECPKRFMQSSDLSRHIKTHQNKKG

B1: GGGGGAGCTG (dsDNA)
DNA 1: GGGGGAGCTG
DNA 2: CAGCTCCCCC
For B1, the dissociation constant Kd was determined as 2000 nM in series [1], 335 nM in series [2], 3 nM in series [3] and 1.85 nM in series [4].

B2: GCAGCGGTAG (dsDNA)
DNA 1: GCAGCGGTAG
DNA 2: CTACCGCTGC
B2: the Kd stood at 500 nM in series [5], 258 nM in [6], 1250 nM in series [7] and 265 nM in series [8].

B3: GAGATGGATC (dsDNA)
DNA 1: GAGATGGATC
DNA 2: GATCCATCTC
As to B3, the dissociation constant (Kd) in series [9] was 74 nM; in [10], 112 nM; in [11], 890 nM; in series [12], 444 nM.

B4: GGATGGGGG (dsDNA)
DNA 1: GGATGGGGG
DNA 2: CCCCCATCC
B4 gave a Kd in series [13] of 0.75 nM.

B5: GCTGCAGGAG (dsDNA)
DNA 1: GCTGCAGGAG
DNA 2: CTCCTGCAGC
Consider B5, for which the Kd in [14] turned out to be 850 nM; in series [15], 3000 nM; in series [16], 150 nM; in series [17], 90 nM; in series [18], 500 nM.
